Measurements reported in patent US20250171534A1 (D2M BIOTHERAPEUTICS, published 2025).
Each block holds one binder with its values, some of them ahead of it.

How the values were obtained:
[1] = biological target: T1, human LILRB1 expressed on cells (human, UniProt Q8NHL6 24-650); assay: flow cytometry on CHO-LILRB1 cells, non-linear fit of the curves of FIG. 26A
T1 construct: In 293T cells it was expressed from pCMV3-LILRB1-GFP; also called CHO-LILRB1; Jurkat-LILRB1

[2] = biological target: T2, cynomolgus (monkey) LILRB2 expressed on CHO cells (cynomolgus monkey); assay: flow cytometry on CHO-cynoLILRB2 cells, non-linear fit of the curves of FIG. 26D
T2 construct: whole, on cells; Putative orthologue; also called cynoLILRB2; cynoRB2

[3] = biological target: T2, cynomolgus (monkey) LILRB2 expressed on …; assay: flow cytometry on CHO-cynoLILRB2 cells
[4] = biological target: T3, human LILRB2 expressed on cells (human, UniProt Q8N423 22-597); assay: flow cytometry on CHO-LILRB2 cells, non-linear fit of the curves of FIG. 26B
T3 construct: In 293T cells it was expressed from pCMV3-LILRB2-GFP; also called CHO-LILRB2; Jurkat-LILRB2

[5] = biological target: T4, LILRB3 expressed on cells (human, UniProt O75022 24-631); assay: flow cytometry on CHO-LILRB3 cells (CHO-RB3), titrated antibody, labelled anti-human Fc, gMFI
T4 construct: whole, on cells; Expressed with a GFP tag from the bought plasmid; also called human LILRB3; CHO-LILRB3

[6] = biological target: T1, human LILRB1 expressed on cells; assay: flow cytometry on CHO-LILRB1 cells (CHO-RB1), titrated antibody, labelled anti-human Fc, gMFI
[7] = biological target: T3, human LILRB2 expressed on cells; assay: flow cytometry on CHO-LILRB2 cells (CHO-RB2), titrated antibody, labelled anti-human Fc, gMFI
[8] = biological target: T5, LILRA6 expressed on cells (human, UniProt Q6PI73 24-481); assay: flow cytometry on CHO-LILRA6 cells, non-linear fit of the curves of FIG. 26F
T5 construct: whole, on cells; GFP-tagged; also called human LILRA6; CHO-LILRA6

[9] = biological target: T4, LILRB3 expressed on cells; assay: flow cytometry on CHO-LILRB3 cells, non-linear fit of the curves of FIG. 26C
[10] = biological target: T6, LILRA1 expressed on cells (human, UniProt O75019 17-489); assay: flow cytometry on CHO-LILRA1 cells, non-linear fit of the curves of FIG. 26E
T6 construct: whole, on cells; GFP-tagged; also called human LILRA1; CHO-LILRA1

[11] = biological target: T6, LILRA1 expressed on cells; assay: flow cytometry on CHO-LILRA1 cells (CHO-RA1), titrated antibody, labelled anti-human Fc, gMFI
[12] = biological target: T2, cynomolgus (monkey) LILRB2 expressed on …; assay: flow cytometry on CHO-cynoLILRB2 cells (CHO-cyno RB2), titrated antibody, labelled anti-human Fc, gMFI
[13] = biological target: T1, human LILRB1 expressed on cells; assay: flow cytometry, CHO-LILRB1 cells
[14] = biological target: T7, LILRB2-ECD-HIS (SinoBiological Cat #: 14132-H02H) (human, UniProt Q8N423 22-460); assay: SPR (Carterra LSA), antibody captured, antigen injected;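 also: kd obtained from kinetic analysis of antibody binding to the antigen, with association and dissociation phases fitted in the instrument software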
T7 construct: Bought protein; also called monomeric antigen LILRB2-ECD-HIS; not shown: His tag

[15] = biological target: T8, LILRB1-ECD-HIS (SinoBiological Cat #: 16014-H02H) (human, UniProt Q8NHL6 24-461); assay: as above
T8 construct: Bought protein; also called monomeric antigen LILRB1-ECD-HIS; not shown: His tag

[16] = biological target: T3, human LILRB2 expressed on cells; assay: flow cytometry, CHO-LILRB2 cells
[17] = biological target: T3, human LILRB2 expressed on cells; assay: flow cytometry, CHO-LILRB2 cells; remark: listed apart in the source
[18] = biological target: T9, LILRA4 expressed on 293T cells (UniProt P59901 24-499, limits assumed); assay: flow cytometry on 293T cells transiently expressing LILRA4, APC anti-human Fc; gMFI as fold to IgG staining
T9 construct: whole, on cells; GFP-tagged, transient

[19] = biological target: T6, LILRA1 expressed on cells; assay: flow cytometry on 293T cells transiently expressing LILRA1, APC anti-human Fc; gMFI as fold to IgG staining
[20] = biological target: T4, LILRB3 expressed on cells; assay: flow cytometry on 293T cells transiently expressing LILRB3, APC anti-human Fc; gMFI as fold to IgG staining
[21] = biological target: T10, LILRB4 expressed on 293T cells (UniProt Q8NHJ6 22-448, limits assumed); assay: flow cytometry on 293T cells transiently expressing LILRB4, APC anti-human Fc; gMFI as fold to IgG staining
T10 construct: whole, on cells; GFP-tagged, transient

[22] = biological target: T1, human LILRB1 expressed on cells; assay: flow cytometry, CHO-LILRB1 cells; blocked ligand: APC HLA-G trimer tetramer
[23] = biological target: T1, human LILRB1 expressed on cells; assay: flow cytometry, CHO-LILRB1 cells; remark: listed apart in the source
[24] = biological target: T3, human LILRB2 expressed on cells; assay: flow cytometry on 293T cells transiently expressing LILRB2, APC anti-human Fc; gMFI as fold to IgG staining
[25] = biological target: T1, human LILRB1 expressed on cells; assay: flow cytometry, CHO-LILRB1 cells; remark: listed apart in the source
[26] = biological target: T11, LILRA3 expressed on 293T cells (UniProt Q8N6C8 24-439, limits assumed); assay: flow cytometry on 293T cells transiently expressing LILRA3, APC anti-human Fc; gMFI as fold to IgG staining
T11 construct: whole, on cells; GFP-tagged, transient

[27] = biological target: T12, LILRA5 expressed on 293T cells (UniProt A6NI73 42-299, limits assumed); assay: flow cytometry on 293T cells transiently expressing LILRA5, APC anti-human Fc; gMFI as fold to IgG staining
T12 construct: whole, on cells; GFP-tagged, transient

[28] = biological target: T13, LILRB5 expressed on 293T cells (UniProt O75023 24-590, limits assumed); assay: flow cytometry on 293T cells transiently expressing LILRB5, APC anti-human Fc; gMFI as fold to IgG staining
T13 construct: whole, on cells; GFP-tagged, transient

[29] = biological target: T14, LILRA2 expressed on 293T cells (UniProt Q8N149 24-483, limits assumed); assay: flow cytometry on 293T cells transiently expressing LILRA2, APC anti-human Fc; gMFI as fold to IgG staining
T14 construct: whole, on cells; GFP-tagged, transient

[30] = biological target: T5, LILRA6 expressed on cells; assay: flow cytometry on 293T cells transiently expressing LILRA6, APC anti-human Fc; gMFI as fold to IgG staining

T6 sequence (O75019 17-489): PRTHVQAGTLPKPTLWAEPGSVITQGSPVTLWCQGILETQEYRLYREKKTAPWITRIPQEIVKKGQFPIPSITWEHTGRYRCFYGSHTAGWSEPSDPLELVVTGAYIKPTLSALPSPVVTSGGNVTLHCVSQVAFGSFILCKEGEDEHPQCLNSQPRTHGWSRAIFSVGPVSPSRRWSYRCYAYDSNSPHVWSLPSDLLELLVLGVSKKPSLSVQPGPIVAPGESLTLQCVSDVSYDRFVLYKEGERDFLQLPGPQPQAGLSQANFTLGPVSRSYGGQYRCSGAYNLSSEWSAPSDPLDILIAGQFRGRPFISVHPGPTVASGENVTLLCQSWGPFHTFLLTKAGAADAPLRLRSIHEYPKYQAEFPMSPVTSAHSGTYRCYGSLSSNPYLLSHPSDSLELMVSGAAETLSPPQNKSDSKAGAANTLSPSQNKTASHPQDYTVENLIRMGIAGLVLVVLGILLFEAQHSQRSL
T1 sequence (Q8NHL6 other isoform, or with tags, fused parts or gaps limits assumed): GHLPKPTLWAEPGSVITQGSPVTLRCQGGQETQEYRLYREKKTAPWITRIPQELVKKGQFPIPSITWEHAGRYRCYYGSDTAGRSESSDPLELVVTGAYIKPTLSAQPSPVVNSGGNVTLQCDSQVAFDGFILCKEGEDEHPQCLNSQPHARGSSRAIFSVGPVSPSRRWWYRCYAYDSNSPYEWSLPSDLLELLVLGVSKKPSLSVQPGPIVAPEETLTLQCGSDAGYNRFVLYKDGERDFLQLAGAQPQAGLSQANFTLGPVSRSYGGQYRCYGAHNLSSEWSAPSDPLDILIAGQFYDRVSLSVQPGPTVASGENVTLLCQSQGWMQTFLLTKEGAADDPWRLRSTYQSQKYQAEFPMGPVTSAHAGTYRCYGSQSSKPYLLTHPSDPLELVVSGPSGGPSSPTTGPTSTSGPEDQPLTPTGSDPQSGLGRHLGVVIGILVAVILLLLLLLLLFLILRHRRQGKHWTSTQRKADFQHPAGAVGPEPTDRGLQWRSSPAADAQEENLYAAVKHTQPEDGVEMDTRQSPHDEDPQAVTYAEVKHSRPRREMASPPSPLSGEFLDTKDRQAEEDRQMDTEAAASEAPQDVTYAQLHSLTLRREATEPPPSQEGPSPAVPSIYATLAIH
T3 sequence (Q8N423 other isoform, or with tags, fused parts or gaps limits assumed): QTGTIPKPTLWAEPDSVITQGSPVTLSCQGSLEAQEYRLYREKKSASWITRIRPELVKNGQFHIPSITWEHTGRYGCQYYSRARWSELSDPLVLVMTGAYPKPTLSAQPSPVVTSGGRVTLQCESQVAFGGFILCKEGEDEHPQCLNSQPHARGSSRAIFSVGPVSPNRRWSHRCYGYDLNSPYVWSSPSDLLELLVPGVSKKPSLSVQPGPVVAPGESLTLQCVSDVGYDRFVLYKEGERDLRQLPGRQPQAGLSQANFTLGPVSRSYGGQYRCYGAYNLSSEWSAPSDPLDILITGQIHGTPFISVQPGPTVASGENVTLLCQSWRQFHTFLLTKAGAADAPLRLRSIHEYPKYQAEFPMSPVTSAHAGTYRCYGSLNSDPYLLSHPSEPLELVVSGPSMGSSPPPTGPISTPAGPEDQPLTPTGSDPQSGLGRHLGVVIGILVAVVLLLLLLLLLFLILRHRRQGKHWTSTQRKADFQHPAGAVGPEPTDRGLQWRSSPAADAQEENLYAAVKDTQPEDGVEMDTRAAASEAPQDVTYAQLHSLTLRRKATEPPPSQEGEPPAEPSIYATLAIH
T7 sequence (Q8N423 other isoform, or with tags, fused parts or gaps H02H H02H): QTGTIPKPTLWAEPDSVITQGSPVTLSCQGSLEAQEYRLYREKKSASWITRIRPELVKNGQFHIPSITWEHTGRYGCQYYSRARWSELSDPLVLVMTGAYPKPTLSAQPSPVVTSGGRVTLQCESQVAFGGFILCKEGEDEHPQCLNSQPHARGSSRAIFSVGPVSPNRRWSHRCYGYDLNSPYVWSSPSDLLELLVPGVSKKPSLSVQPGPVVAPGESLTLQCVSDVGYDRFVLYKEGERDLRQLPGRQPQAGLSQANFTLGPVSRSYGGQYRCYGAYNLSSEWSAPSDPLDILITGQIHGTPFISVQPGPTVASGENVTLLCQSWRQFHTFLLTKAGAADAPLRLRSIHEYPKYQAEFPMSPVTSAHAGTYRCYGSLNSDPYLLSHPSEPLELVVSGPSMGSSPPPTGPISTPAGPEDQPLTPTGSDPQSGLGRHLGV
T5 sequence (Q6PI73 24-481): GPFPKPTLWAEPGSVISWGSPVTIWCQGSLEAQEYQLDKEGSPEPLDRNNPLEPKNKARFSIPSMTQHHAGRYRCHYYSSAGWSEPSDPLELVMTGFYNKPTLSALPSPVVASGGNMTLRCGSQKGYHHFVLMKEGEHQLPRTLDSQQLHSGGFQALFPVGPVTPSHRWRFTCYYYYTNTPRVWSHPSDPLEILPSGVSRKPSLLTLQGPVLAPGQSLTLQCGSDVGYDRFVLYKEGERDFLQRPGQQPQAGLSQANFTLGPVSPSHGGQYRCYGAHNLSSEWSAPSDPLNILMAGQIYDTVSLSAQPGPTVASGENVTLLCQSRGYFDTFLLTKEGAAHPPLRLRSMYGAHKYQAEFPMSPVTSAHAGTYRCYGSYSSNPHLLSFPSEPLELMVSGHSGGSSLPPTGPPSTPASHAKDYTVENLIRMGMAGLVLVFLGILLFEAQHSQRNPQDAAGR
T8 sequence (Q8NHL6 other isoform, or with tags, fused parts or gaps H02H H02H): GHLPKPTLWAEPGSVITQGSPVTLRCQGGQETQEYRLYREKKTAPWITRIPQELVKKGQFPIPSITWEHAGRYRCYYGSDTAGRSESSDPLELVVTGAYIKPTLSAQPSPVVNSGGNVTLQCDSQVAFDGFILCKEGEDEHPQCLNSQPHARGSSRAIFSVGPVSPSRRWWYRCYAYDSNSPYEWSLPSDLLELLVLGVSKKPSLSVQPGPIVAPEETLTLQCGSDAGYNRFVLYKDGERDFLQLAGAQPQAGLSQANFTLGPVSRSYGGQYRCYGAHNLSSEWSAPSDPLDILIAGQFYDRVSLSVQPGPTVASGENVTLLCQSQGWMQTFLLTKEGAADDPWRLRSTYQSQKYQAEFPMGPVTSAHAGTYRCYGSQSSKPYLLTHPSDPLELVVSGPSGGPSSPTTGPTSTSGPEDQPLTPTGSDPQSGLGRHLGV
T9 sequence (P59901 24-499 limits assumed): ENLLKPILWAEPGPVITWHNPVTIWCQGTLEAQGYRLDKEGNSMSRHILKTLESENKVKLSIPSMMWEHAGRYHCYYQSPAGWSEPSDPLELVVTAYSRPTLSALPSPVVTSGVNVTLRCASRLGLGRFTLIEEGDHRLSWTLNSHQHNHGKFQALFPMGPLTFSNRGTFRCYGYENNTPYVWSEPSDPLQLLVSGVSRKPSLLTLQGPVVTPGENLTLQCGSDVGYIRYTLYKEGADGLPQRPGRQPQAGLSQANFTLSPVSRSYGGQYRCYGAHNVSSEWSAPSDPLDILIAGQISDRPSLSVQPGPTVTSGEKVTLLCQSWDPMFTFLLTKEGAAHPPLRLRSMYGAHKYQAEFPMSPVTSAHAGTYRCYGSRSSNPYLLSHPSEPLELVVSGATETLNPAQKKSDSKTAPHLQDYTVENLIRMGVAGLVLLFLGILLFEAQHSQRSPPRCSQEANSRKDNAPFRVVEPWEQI
T12 sequence (A6NI73 42-299 limits assumed): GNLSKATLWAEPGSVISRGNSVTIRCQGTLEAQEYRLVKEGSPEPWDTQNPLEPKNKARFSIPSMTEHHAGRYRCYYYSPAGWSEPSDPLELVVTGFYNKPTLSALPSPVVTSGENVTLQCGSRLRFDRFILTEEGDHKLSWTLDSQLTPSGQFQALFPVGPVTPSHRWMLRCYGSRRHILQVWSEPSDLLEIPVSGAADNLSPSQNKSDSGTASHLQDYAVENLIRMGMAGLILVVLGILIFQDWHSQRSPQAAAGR
T14 sequence (Q8N149 24-483 limits assumed): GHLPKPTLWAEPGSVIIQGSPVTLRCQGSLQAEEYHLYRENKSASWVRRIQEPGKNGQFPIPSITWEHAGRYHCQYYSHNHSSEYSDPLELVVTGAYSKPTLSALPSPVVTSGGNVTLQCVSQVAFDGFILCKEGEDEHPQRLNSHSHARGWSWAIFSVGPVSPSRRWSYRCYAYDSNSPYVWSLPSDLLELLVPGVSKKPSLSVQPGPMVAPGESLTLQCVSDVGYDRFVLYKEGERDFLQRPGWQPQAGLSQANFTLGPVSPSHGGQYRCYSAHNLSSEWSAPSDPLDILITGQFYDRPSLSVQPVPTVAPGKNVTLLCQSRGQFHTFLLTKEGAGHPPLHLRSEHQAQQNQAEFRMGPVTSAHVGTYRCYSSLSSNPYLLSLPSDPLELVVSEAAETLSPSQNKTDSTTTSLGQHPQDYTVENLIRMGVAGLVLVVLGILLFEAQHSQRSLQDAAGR
T11 sequence (Q8N6C8 24-439 limits assumed): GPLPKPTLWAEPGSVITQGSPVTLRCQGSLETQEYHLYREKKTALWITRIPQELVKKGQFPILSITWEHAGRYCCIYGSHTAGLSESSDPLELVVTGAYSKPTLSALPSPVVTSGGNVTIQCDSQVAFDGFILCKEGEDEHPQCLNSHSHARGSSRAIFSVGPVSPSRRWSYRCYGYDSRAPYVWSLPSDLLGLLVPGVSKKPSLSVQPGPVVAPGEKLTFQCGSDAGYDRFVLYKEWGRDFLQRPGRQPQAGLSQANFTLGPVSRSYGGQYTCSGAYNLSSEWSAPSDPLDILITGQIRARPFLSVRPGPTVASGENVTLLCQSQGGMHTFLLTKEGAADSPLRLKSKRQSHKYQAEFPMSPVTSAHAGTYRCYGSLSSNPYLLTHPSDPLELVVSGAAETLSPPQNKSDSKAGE

B1: D2M002-103HV1 (antibody, V domains shown)
VH: QVQLVQSGAEVKKPGASVKVSCKASGYTFTRYVMHWVRQAPGQRLEWIGYINPNNEETKYSQKFKGRVTLTRDTSASTAYMELSSLRSEDTAVYYCARADLEILPYYDHARYAMDYWGQGTLVTVSS
VL: DIQMTQSPSSVSASVGDRVTITCRASENIYSHLAWYQQKPGKAPKLLVYNAKSLQSGVPSRFSGSGSGTDFTLTISSLQPEDFATYYCQHFWSTPPTFGGGTKVEIK
notes: Humanized and optimized variant of the D2M002-002 lineage
EC50 [1]: 0.0941 µg/mL | MaxMFI [1]: 111000 | EC50 [2]: 0.059 µg/mL | EC50 [3]: 0.059 µg/mL | EC50 [4]: 0.0599 µg/mL | MaxMFI [4]: 30000 | EC50 (read off the curve) [5]: ~0.1 µg/mL | EC50 (read off the curve) [6]: ~0.1 µg/mL | EC50 (read off the curve) [7]: ~0.06 µg/mL | EC50 [8]: 0.0473 µg/mL | EC50 [9]: 0.12 µg/mL | EC50 [10]: 0.157 µg/mL | MaxMFI [10]: 20300 | EC50 (read off the curve) [11]: ~0.2 µg/mL | EC50 (read off the curve) [12]: ~0.06 µg/mL

B2: D2M002-004 (antibody, human IgG1, V domains shown)
VH: EVQLQQSGAELVRPGALVKLSCKASGFNIKDYYMHWVKQRPEQGLEWIGWIDPESGNTIYDPKFQGKASMTADTSSNTAYLQLSSLTSEDTAVYYCARLDGSSYYAMDYWGQGTSVTVSS
VL: DILLTQSPASLAVSLGQRATISCRASESVDSYGNSFMHWYQQKPGQPPKLLIYLASNLESGVPARFSGSGSRTDFTLTIDPVEADDAATYYCQQNNEDPLTFGAGTKLELK
notes: Hit; also called clone #4
EC50 [13]: 0.004 µg/mL | gMFI (max) [13]: 14300 | Kd [14]: 1000 nM | Kd [15]: 23.6 nM | binding result [16]: no binding (tested: 5 µg/mL)

The next lines start with the values.

Kd [14]: 1000 nM | Kd [15]: 94.4 nM | binding result [17]: no binding (tested: 5 µg/mL)
B3: #45 (antibody, human IgG1, V domains shown)
VH: QIQLLQSGPELKKPGETVKISCKASGYTFTDYSMHWVKQAPGKGLKWMGWINTETGEPTYADDFKGRFAFSLETSASTAYLQINNLKNEDTATYFCARVVRRGYFDVWGAGTTVTVSS
VL: DIQMTQSPASLSASVGETVTITCRASGNIHNYLAWYQQKQGKSPQVLVYNAKTLADGVPSRFSGSGSGTQYSLKINSLQPEDFGSYYCQHFWSTPFTFGSGTKLEIK
notes: also called D2M002-045

binding result [18]: no binding (tested: 5 µg/mL) | binding result [19]: no binding (tested: 5 µg/mL) | binding result [20]: no binding (tested: 5 µg/mL) | binding result [21]: no binding (tested: 5 µg/mL) | EC50 [13]: 0.016 µg/mL | gMFI (max) [13]: 23000 | IC50 [22]: 0.012 µg/mL | EC50 [23]: 0.033 µg/mL | binding result [24]: no binding (tested: 5 µg/mL) | EC50 (read off the curve) [25]: ~0.02 µg/mL | binding result [26]: no binding (tested: 5 µg/mL) | binding result [27]: no binding (tested: 5 µg/mL) | binding result [28]: no binding (tested: 5 µg/mL) | binding result [29]: no binding (tested: 5 µg/mL) | binding result [30]: no binding (tested: 5 µg/mL)
B4: Anti-LILRB1 antibody 3C1 (antibody, human IgG4 S228P, lambda, V domains shown)
VH: EVQLVESGGGLVQPGGSLRLSCAASGFTFSDYDMHWVRQATGKGLEWVATIDTAGDTYYPDSVRGRFTISRENAKNSLSLQMNSLRAGDTAVYFCARDVPGTGFDHWGQGTLVTVSS
VL: SSELTQDPAVSVALGQTVRITCQGDSLRSYYESWYQQKPGQAPVLVIYGKNNRPSGIPDRFSGSISGNTASLTITGTQAEDEADYYCNSRDNSGDHWVFGGGTRLTVLG
